Experimental data: patent publication US4605614A, “Method for measuring plasmin” (Nitto Boseki Co., Ltd., priority 1981, dated 1986)

How the values were obtained:
Assay in all cases: Km, Vmax and Vmax/Km of substrates for plasmin (pig)
Type in all cases: biochemical, Porcine (pig)
[1] = substrate: CC(=O)NCCCC[C@@H](N)C(=O)N[C@@H](Cc1ccccc1)C(=O)N[C@@H](CCCCN)C(=O)Nc1ccc(O)c(C(=O)O)c1; settings: other: TABLE 2, CHA substrates, plasmin (pig), 2,6-xylenol 615 nm
Text: (§1) The substrates produced by the above examples were used in the measurement of plasmin as follows: The principle of this measurement comprises quantitatively analyzing the decomposition product p-nitroaniline or 3-carboxy-4-hydroxyaniline produced by the enzymatic hydrolysis, by measuring the absorbance (O.D.) directly at 405 nm in the case of p-nitroaniline and, in the case of the 3-carboxy-4-hydroxyaniline at 615 nm after condensing it with 2,6-xylenol in the presence of an oxidant to develop a color.
(§2) For the measurements of these constants, the following method is adopted:
(§3) The enzyme and the substrate are mixed in a buffer solution and subjected to the hydrolysis for 30 seconds. The concentration of the substrate [S] is changed and the enzyme concentration is maintained constant. By measuring the absorbance (O.D.), the initial velocity of the hydrolysis can be determined. Where 1/V is plotted as a function of 1/[S], there is obtained a Lineweaver and Burk's linea from which graph the Vmax and Km can be determined.

[2] = substrate: CC(C)C[C@H](NC(=O)[C@H](N)C(C)C)C(=O)N[C@@H](CCCCN)C(=O)Nc1ccc([N+](=O)[O-])cc1
Text: as §1, §2, §3

[3] = substrate: CCCC(=O)NCCCC[C@@H](N)C(=O)N[C@@H](Cc1ccccc1)C(=O)N[C@@H](CCCCN)C(=O)Nc1ccc(O)c(C(=O)O)c1; settings: other: TABLE 2, CHA substrates, plasmin (pig), 2,6-xylenol 615 nm
Text: as §1, §2, §3

[4] = substrate: CS(=O)(=O)NCCCC[C@@H](N)C(=O)N[C@@H](Cc1ccccc1)C(=O)N[C@@H](CCCCN)C(=O)Nc1ccc(O)c(C(=O)O)c1; settings: other: TABLE 2, CHA substrates, plasmin (pig), 2,6-xylenol 615 nm
Text: as §1, §2, §3

[5] = substrate: Cc1cc(C)c(S(=O)(=O)NCCCC[C@@H](N)C(=O)N[C@@H](Cc2ccccc2)C(=O)N[C@@H](CCCCN)C(=O)Nc2ccc(O)c(C(=O)O)c2)c(C)c1; settings: other: TABLE 2, CHA substrates, plasmin (pig), 2,6-xylenol 615 nm
Text: as §1, §2, §3

[6] = substrate: Cc1ccc(C(=O)NCCCC[C@@H](N)C(=O)N[C@@H](Cc2ccccc2)C(=O)N[C@@H](CCCCN)C(=O)Nc2ccc([N+](=O)[O-])cc2)cc1; settings: other: TABLE 1, PNA substrates, plasmin (pig), 405 nm
Text: as §1, §2, §3

[7] = substrate: Cc1ccc(CCNC(=O)CC[C@@H](N)C(=O)N[C@@H](Cc2ccccc2)C(=O)N[C@@H](CCCCN)C(=O)Nc2ccc(O)c(C(=O)O)c2)cc1; settings: other: TABLE 2, CHA substrates, plasmin (pig), 2,6-xylenol 615 nm
Text: as §1, §2, §3

[8] = substrate: Cc1ccc(S(=O)(=O)NCC(=O)N2CCC[C@H]2C(=O)N[C@@H](CCCCN)C(=O)Nc2ccc([N+](=O)[O-])cc2)cc1
Text: as §1, §2, §3

[9] = substrate: Cc1ccc(S(=O)(=O)NCCCC[C@@H](N)C(=O)N[C@@H](CC(C)C)C(=O)N[C@@H](CCCCN)C(=O)Nc2ccc(O)c(C(=O)O)c2)cc1; settings: other: TABLE 2, CHA substrates, plasmin (pig), 2,6-xylenol 615 nm
Text: as §1, §2, §3

[10] = substrate: Cc1ccc(S(=O)(=O)NCCCC[C@@H](N)C(=O)N[C@@H](CC(C)C)C(=O)N[C@@H](CCCCN)C(=O)Nc2ccc([N+](=O)[O-])cc2)cc1; settings: other: TABLE 1, PNA substrates, plasmin (pig), 405 nm
Text: as §1, §2, §3

[11] = substrate: Cc1ccc(S(=O)(=O)NCCCC[C@@H](N)C(=O)N[C@@H](Cc2ccccc2)C(=O)N[C@@H](CCCCN)C(=O)Nc2ccc([N+](=O)[O-])cc2)cc1
Text: as §1, §2, §3

[12] = substrate: Cc1ccc(S(=O)(=O)Oc2ccc(C[C@@H](N)C(=O)N[C@@H](Cc3ccccc3)C(=O)N[C@@H](CCCCN)C(=O)Nc3ccc(O)c(C(=O)O)c3)cc2)cc1; settings: other: TABLE 2, CHA substrates, plasmin (pig), 2,6-xylenol 615 nm
Text: as §1, §2, §3

[13] = substrate: NCCCC[C@@H](N)C(=O)N[C@@H](Cc1ccccc1)C(=O)N[C@@H](CCCCN)C(=O)Nc1ccc(O)c(C(=O)O)c1; settings: other: TABLE 2, CHA substrates, plasmin (pig), 2,6-xylenol 615 nm
Text: as §1, §2, §3

[14] = substrate: NCCCC[C@H](NC(=O)[C@H](Cc1ccccc1)NC(=O)[C@H](N)CCC(=O)NCCCCc1ccccc1)C(=O)Nc1ccc([N+](=O)[O-])cc1; settings: other: TABLE 1, PNA substrates, plasmin (pig), 405 nm
Text: as §1, §2, §3

[15] = substrate: NCCCC[C@H](NC(=O)[C@H](Cc1ccccc1)NC(=O)[C@H](N)CCC(=O)OC1CCCCC1)C(=O)Nc1ccc([N+](=O)[O-])cc1; settings: other: TABLE 1, PNA substrates, plasmin (pig), 405 nm
Text: as §1, §2, §3

[16] = substrate: NCCCC[C@H](NC(=O)[C@H](Cc1ccccc1)NC(=O)[C@H](N)CCCCNS(=O)(=O)c1ccc2ccccc2c1)C(=O)Nc1ccc([N+](=O)[O-])cc1; settings: other: TABLE 1, PNA substrates, plasmin (pig), 405 nm
Text: as §1, §2, §3

[17] = substrate: NCCCC[C@H](NC(=O)[C@H](Cc1ccccc1)NC(=O)[C@H](N)CCCCNS(=O)(=O)c1cccc2ccccc12)C(=O)Nc1ccc(O)c(C(=O)O)c1; settings: other: TABLE 2, CHA substrates, plasmin (pig), 2,6-xylenol 615 nm
Text: as §1, §2, §3

[18] = other: Porcine Plasmin, comparison table in description
[19] = other: TABLE 1, PNA substrates, plasmin (pig), 405 nm

B1: plasmin (pig) (Sus scrofa) (protein)
chain: RIYLSECKTGNGKNYRGTTSKTKSGVICQKWSVSSPHIPKYSPEKFPLAGLEENYCRNPDNDEKGPWCYTTDPETRFDYCDIPECEDECMHCSGEHYEGKISKTMSGIECQSWGSQSPHAHGYLPSKFPNKNLKMNYCRNPDGEPRPWCFTTDPNKRWEFCDIPRCTTPPPTSGPTYQCLKGRGENYRGTVSVTASGHTCQRWSAQSPHKHNRTPENFPCKNLEENYCRNPDGETAPWCYTTDSEVRWDYCKIPSCGSSTTSTEYLDAPVPPEQTPVAQDCYRGNGESYRGTSSTTITGRKCQSWVSMTPHRHEKTPGNFPNAGLTMNYCRNPDADKSPWCYTTDPRVRWEYCNLKKCSETEQQVTNFPAIAQVPSVEDLSEDCMFGNGKRYRGKRATTVAGVPCQEWAAQEPHRHSIFTPETNPRAGLEKNYCRNPDGDDNGPWCYTTNPQKLFDYCDVPQCVTSSFDCGKPKVEPKKCPARVVGGCVSIPHSWPWQISLRHRYGGHFCGGTLISPEWVLTAKHCLEKSSSPSSYKVILGAHEEYHLGEGVQEIDVSKLFKEPSEADIALLKLSSPAIITDKVIPACLPTPNYVVADRTACYITGWGETKGTYGAGLLKEARLPVIENKVCNRYEYLGGKVSPNELCAGHLAGGIDSCQGDSGGPLVCFEKDKYILQGVTSWGLGCALPNKPGVYVRVSRFVTWIEEIMRRN
Km [1]: 250 µM
Km [2, 18]: 348 µM
Km [2, 19]: 348 µM
Km [3]: 239 µM
Km [4]: 326 µM
Km [5]: 272 µM
Km [6]: 15.5 µM
Km [7]: 417 µM
Km [8, 18]: 278 µM
Km [8, 19]: 278 µM
Km [9]: 1000 µM
Km [10]: 189 µM
Km [11, 18]: 16 µM
Km [11, 19]: 15.8 µM
Km [12]: 154 µM
Km [13]: 222 µM
Km [14]: 45.4 µM
Km [15]: 32.2 µM
Km [16]: 17.9 µM
Km [17]: 596 µM
